In publication PMC7954794, “Protein context shapes the specificity of SH3 domain-mediated interactions in vivo” (Nature Communications, 2021):

System: growth of yeast strains under 51 stress conditions
Assay: Growth assays in 51 stress conditions (Fig. 1E-F, S2D, S5B)
Format: cell-based, Saccharomyces cerevisiae
Set-up: key to Growth (Fig. S2D) / growth of ABP1 SH3-swapped strains in stress condition: log2 colony size, average of median per strain (growth score)
Conditions: for Growth (Fig. S2D): ABP1 SH3-swapped strains
Procedure: All WT, SH3-deleted, KO (except for CDC25 which is the only essential SH3-containing gene in yeast), ABP1 SH3-swapped, and SLA1 SH3-shuffled strains were grown on omnitrays in 1536 formats and robotically manipulated with a pin tool (the DHFR F[1,2] bait strains were used except for the KO strains). Each strain was randomly positioned in 6 replicates per plate and two plates per condition were performed, for 12 replicates per strain in total. A border of two rows and two columns of WT strains (BY4741) around the plate was used to remove border effects. Strains were grown on YPD media for two days at 30 °C. They were then replicated on 51 different media that are described in the Supplementary Table 3 and were incubated at 37 °C in a spImager custom platform with images acquired every two hours for four days. The colony sizes from plate pictures were also measured with the R package “Gitter” and the output was manually inspected. Positions with an abnormality in colony circularity were removed. The colony sizes after 74 h of incubation at 37 °C were log2 transformed and used for the analyses. First, the differences between the two plate replicates were corrected to remove plate effects. The median colony size was calculated for each strain per plate. Strains with a difference in their median colony size of more than two between the two plate replicates were removed. Finally, the average of the median colony size was calculated for each strain per condition (growth score).

B1: ABP1: yeast SH3-containing protein; SH3-deleted (D) or gene-deleted (KO) strain (protein, UniProt P15891 2-592, looked up)
Actin-binding protein: ALEPIDYTTHSREIDAEYLKIVRGSDPDTTWLIISPNAKKEYEPESTGSSFHDFLQLFDETKVQYGLARVSPPGSDVEKIIIIGWCPDSAPLKTRASFAANFAAVANNLFKGYHVQVTARDEDDLDENELLMKISNAAGARYSIQTSSKQQGKASTPPVKKSFTPSKSPAPVSKKEPVKTPSPAPAAKISSRVNDNNDDDDWNEPELKERDFDQAPLKPNQSSYKPIGKIDLQKVIAEEKAKEDPRLVQKPTAAGSKIDPSSDIANLKNESKLKRDSEFNSFLGTTKPPSMTESSLKNDDDKVIKGFRNEKSPAQLWAERKAKQNSGNAETKAEAPKPEVPEDEPEGEPDVKDLKSKFEGLAASEKEEEEMENKFAPPPKKSEPTIISPKPFSKPQEPVKAEEAEQPKTDYKKIGNPLPGMHIEADNEEEPEENDDDWDDDEDEAAQPPLPSRNVASGAPVQKEEPEQEEIAPSLPSRNSIPAPKQEEAPEQAPEEEIEEEAEEAAPQLPSRSSAAPPPPPRRATPEKKPKENPWATAEYDYDAAEDNELTFVENDKIINIEFVDDDWWLGELEKDGSKGLFPSNYVSLGN
size (colony size) (Abp1 SH3 swaps (FigS2D), SC pH6, Plate 1, Time 74, Rep 1, one colony): 2065
relative_to_wt, D_minus_WT (Bathophenanthroline 0.1uM, D = SH3 deletion (all SH3s deleted for multi-SH3 proteins), log2 colony size, 74 h at 37 °C, n = 12): 0.05618
relative_to_wt, KO_minus_WT (Bathophenanthroline 0.1uM, KO = gene deletion, log2 colony size, 74 h at 37 °C, n = 12): -0.004019
Growth (Fig. S2D) (Bathophenanthroline.0.1uM): 10.7819
Growth (Fig. S2D) (Bathophenanthroline.10uM): 10.707
Growth (Fig. S2D) (Bathophenanthroline.1uM): 10.7137
Growth (Fig. S2D) (CaCl2.100mM): 10.7891
Growth (Fig. S2D) (CaCl2.250mM): 10.7489
Growth (Fig. S2D) (CaCl2.500mM): 10.224
Growth (Fig. S2D) (Caffein.10mM): 10.0464
Growth (Fig. S2D) (CdCl2.10uM): 10.9024
Growth (Fig. S2D) (CdCl2.50uM): 10.1243
Growth (Fig. S2D) (CuSO4.1mM): 10.685
Growth (Fig. S2D) (CuSO4.5mM): 8.504
Growth (Fig. S2D) (Cycloheximide.0.05.uM): 11.0798
Growth (Fig. S2D) (Cycloheximide.0.2.uM): 10.7165
Growth (Fig. S2D) (Cycloheximide.0.5.uM): 10.6015
Growth (Fig. S2D) (DMSO.2.): 11.0276
Growth (Fig. S2D) (DMSO.6.): 10.032
Growth (Fig. S2D) (DMSO.8.): 9.2108
Growth (Fig. S2D) (Ethanol.2.): 10.8119
Growth (Fig. S2D) (Ethanol.6.): 10.4593
Growth (Fig. S2D) (Ethanol.8.): 10.4305
Growth (Fig. S2D) (Galactose.2.): 10.8275
Growth (Fig. S2D) (Glycerol.2.): 10.3524
Growth (Fig. S2D) (Hydroxyurea.25mM): 10.8959
Growth (Fig. S2D) (Hygromycin.190uM): 10.9986
Growth (Fig. S2D) (Hygromycin.19uM): 10.9797
Growth (Fig. S2D) (Hygromycin.95uM): 11.0235
Growth (Fig. S2D) (MMS.0.004.): 10.9969
Growth (Fig. S2D) (MMS.0.02.): 10.8642
Growth (Fig. S2D) (MMS.0.04.): 10.3851
Growth (Fig. S2D) (Menadione.100uM): 10.5759
Growth (Fig. S2D) (Menadione.200uM): 10.5046
Growth (Fig. S2D) (Menadione.50uM): 10.8116
Growth (Fig. S2D) (NaCl.0.25M): 10.7355
Growth (Fig. S2D) (NaCl.1M): 10.3236
Growth (Fig. S2D) (Nitroquinoline.10uM): 10.7675
Growth (Fig. S2D) (Nitroquinoline.50uM): 10.7265
Growth (Fig. S2D) (Nystatin.0.01uM): 11.043
Growth (Fig. S2D) (Nystatin.0.1uM): 11.0609
Growth (Fig. S2D) (Raffinose.2.): 10.9185
Growth (Fig. S2D) (Rapamycin.10nM): 10.1065
Growth (Fig. S2D) (Rapamycin.50nM): 9.408
Growth (Fig. S2D) (SC.pH3): 10.3986
Growth (Fig. S2D) (SC.pH6): 11.0415
Growth (Fig. S2D) (SDS.0.01.): 10.9914
Growth (Fig. S2D) (SDS.0.02.): 10.9706
Growth (Fig. S2D) (SDS.0.05.): 10.8264
Growth (Fig. S2D) (Sorbitol.10mM): 10.9836
Growth (Fig. S2D) (Sorbitol.1mM): 10.9924
Growth (Fig. S2D) (Sorbitol.5mM): 10.9128
